Test results taken from PMC5667506, “Potent and selective inhibition of SH3 domains with dirhodium metalloinhibitors” (Chemical Science, 2015).
Entries after “also recorded” stand apart in the source; their conditions may differ. Read-outs that look alike come from different tables or passages of the source. Rh2(OAc)3 = dirhodium(II) triacetate, bound to the side-chain carboxylate

Key:
[1] = target: T1, Hck SH3 domain (Homo sapiens, UniProt P08631); experiment: ITC binding to Hck SH3 domain (two-sets-of-sites fit); details: 25 °C, high affinity specific site
T1 construct: The hck SH3 domain was amplified by PCR using Phusion DNA polymerase; GST (N, cleaved yes); made in house; host or cells: E. coli BL21 (DE3)
T1 sequence (P08631 77-139): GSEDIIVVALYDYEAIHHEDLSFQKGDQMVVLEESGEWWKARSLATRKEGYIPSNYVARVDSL
Description: (§1) All chemical reagents were purchased from Sigma-Aldrich and were used without further purification.
(§2) Peptide synthesis. All peptides were synthesized manually or with an AAPPTEC APEX 396 Automated Multipeptide Synthesizer using standard solid-phase Fmoc protocols.1,2 Peptides were prepared as C-terminal amides using Rink amide MBHA resin (AAPPTEC) and were acetylated at the N-terminus prior to cleavage from the resin. Peptides and metallopeptides were purified by reverse-phase HPLC.
(§3) HPLC separation. Reverse-phase HPLC was performed on a Shimadzu CBM-20A instrument with Phenomenex Jupiter 4μ Proteo 90A (250 × 15 mm preparative) and Phenomenex Jupiter 4μ Proteo 90A (250 × 4.6 mm analytical) columns. The columns were eluted with a gradient of acetonitrile in water (10-90%) (flow rates of 8 mL/min and 1 mL/min for preparative and analytical columns, respectively). Trifluoroacetic acid (0.1%) was added to all eluents. […]
(§4) ITC analysis. ITC experiments were carried out on a VP-ITC instrument (MicroCal) at 25 °C. Titrations of 275 μM peptide into 18 μM SH3 domain proteins were used for all titrations, except for the titration of S2ERh into Lyn SH3 domain, where the lower concentrations of 69 µM S2ERh peptide and 4 µM Lyn SH3 were used to attain a c-value for the titration within the accepted limts for ITC experiments ([…]).3
(§5) Heats of dilutions were measured independently for each experiment by titrating 275 μM peptide into buffer (20 mM phosphate buffer, pH 7, 150 mM NaCl, 1 mM EDTA). All experimental data were fitted using a one set of sites binding model in Origin software (MicroCal) except for the data with Hck SH3 domain. With Hck only, the non-peptide specific binding of dirhodium tetraacetate to Hck SH3 domain could not be treated as negligible, despite the very weak interaction (88 µM), due to the larger enthalpy contribution observed for non-specific binding to this SH3 domain, so the titrations of peptide into Hck were fitted using a 2 set of sites binding model where the stoichiometry for the second set of sites was fixed at 2.0. […]
(§6) Mass spectrometry. ESI-MS was performed on a Bruker Daltonics micrOTOF instrument.
Known compounds and proteins. Several metallopeptides (S2ERh, L3ERh, R5ERh, and 13DRh) were reported previously and were prepared by known protocols;4 alkyne-diazo 3,5 3-azido-7-hydroxycoumarin6 were synthesized following reported procedures; fyn, yes, lck, and src SH3 protein domains were prepared following published procedures.5 Abl, hck, and lyn SH3 domain plasmids were adapted from the previously reported genes;7 the gene templates were obtained from Addgene, ID […]
Table S1. Table of the thermodynamic parameters for binding of metallopeptides to SH3 domains, determined by isothermal […]
Protein Peptide Stoichiometry Kd ΔH -TΔS ΔG
(nM) (kcal mol-1) (kcal mol-1) (kcal mol-1)
* The binding isotherms for metallopeptide interactions with Hck were fitted using a two -sets-of-sites model with the stoichiometry for the second set of sites fixed to 2.0. The second set of binding sites was used to account for the weak, but not negligable, binding of the peptide to another surface of Hck SH3 domain, presumably through non-specific interactions of the dirhodium tetraacetate group. The thermodynamics for the high affinity specific binding site interaction are provided in this

[2] = target: T2, Full-length Lyn kinase (GST-tagged Lyn B) (Homo sapiens, UniProt P07948); experiment: Lyn kinase activation assay (ADP-Glo Kinase Assay); format: biochemical; details: 74 nM Lyn, 5 min
T2 construct: Full-length Lyn kinase (74 nM) was treated with substrate peptide and ATP; purchased Promega
T2 sequence (P07948 1-491 isoform P07948-2): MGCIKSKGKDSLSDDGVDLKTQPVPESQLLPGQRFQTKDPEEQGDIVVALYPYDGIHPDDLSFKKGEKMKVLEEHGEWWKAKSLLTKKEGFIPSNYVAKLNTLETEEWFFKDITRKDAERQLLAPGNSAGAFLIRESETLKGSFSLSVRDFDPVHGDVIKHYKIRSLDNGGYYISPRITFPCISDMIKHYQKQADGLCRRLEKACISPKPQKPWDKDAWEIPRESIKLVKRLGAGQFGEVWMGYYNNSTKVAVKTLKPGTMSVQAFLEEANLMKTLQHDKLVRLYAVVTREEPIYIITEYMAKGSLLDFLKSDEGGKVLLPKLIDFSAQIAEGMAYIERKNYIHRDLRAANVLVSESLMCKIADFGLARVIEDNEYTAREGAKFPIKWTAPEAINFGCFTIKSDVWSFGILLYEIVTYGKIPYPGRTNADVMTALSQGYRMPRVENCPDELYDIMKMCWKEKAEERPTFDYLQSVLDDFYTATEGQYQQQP
Description: We examined phosphorylation of a peptide substrate at low enzyme concentration (0.074 μM) and short reaction time (t = 5 min) to minimize the alternative autophosphorylation activation pathway (Fig. 6). Kinase activation with traditional ligands has typically required high ligand concentrations (∼1 mM) to overcome the intramolecular nature of the SH3–kinase domain interaction.
Fig. 6 Activation of Lyn kinase activity by a metallopeptide, S2E^Rh, and the parent peptide, S2E. […] Full-length Lyn kinase (74 nM) was treated with substrate peptide and ATP. Kinase activity was measured after 5 min in an adaptation of reported methods.[5] See ESI ^† for details.
(§7) All chemical reagents were purchased from Sigma-Aldrich and were used without further purification. […]
Kinase assay. ATP turnover by Lyn was measured using the ADP-GloTM Kinase Assay (Promega) according to the manufacturer’s protocol. Briefly, final concentrations of 72 μM ATP, 74 nM Lyn (GST-tagged Lyn B), and 240 μM substrate peptide (all from Promega) were combined in buffer (40 mM Tris, 50 μM dithiothreitol, 2 mM MnCl2 and 0.1 mg/mL BSA at pH 7.5) with a solution of the desired treatment (or control) in the same buffer for a final reaction volume of 5 µL. The kinase reaction was allowed to proceed at room temp. for 5 min from addition of ATP before the start of the ADP-Glo protocol halted the reaction. Chemiluminescence data were acquired on a Tecan Infinite M1000 microplate reader in white 384 well low volume plates (Corning Costar 3674) with an integration time of 250 ms per well. […]

[3] = target: T3, Lyn SH3 domain (Homo sapiens, UniProt P07948); experiment: ITC binding of metallopeptides to Lyn SH3 domain; details: 25 °C
T3 construct: The lyn SH3 domain was amplified by PCR using Phusion DNA polymerase; GST (N, cleaved yes); made in house; host or cells: E. coli BL21 (DE3)
T3 sequence (P07948 62-121): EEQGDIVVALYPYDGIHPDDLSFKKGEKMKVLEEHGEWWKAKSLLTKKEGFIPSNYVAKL
Description: The His96 is unique among Src-family sequences, and the His78 appears only in Hck and Lck. Individual amino-acid alterations are the only factors that might distinguish the nearly identical secondary structures and peptide-binding preferences of Src-family SH3 domains (cf. Fig. 1a and b). Based on a Src-family SH3-binding sequence (VSL12),[37] known to bind with similar affinity across Src-family SH3 domains,[38] we made metallopeptides with rhodium in different sites near the beginning of the SH3-binding peptide. […] The optimal metallopeptide, S2E^Rh, bound to Lyn with 6 nM affinity. The accuracy of ITC data is reduced for C values >1000 (C = [protein]/K d). Under these conditions the distribution of data points on the isotherm reduces the precision of the global fit. Since the enthalpic contributions to binding in the formation of the complexes described in this work were high, we were able to use a low protein concentration (4 μM) which ensured that our C values were well below this upper range. […] In broad terms, the thermodynamics—favourable enthalpy and unfavourable entropy—are consistent with previous examinations of peptide–SH3 binding (see Table S1 ^† for thermodynamic data).[39] Moving the location of the rhodium center toward the N-terminus, away from the histidine, led to a drop in binding affinity. The N13D^Rh metallopeptide, a convenient negative control with the rhodium center too far for histidine interactions, binds with micromolar activity, similar to simple SH3 binding of the parent peptide. We conclude that the vast affinity improvement is due to rhodium coordination to unique histidine residue(s).
as §1, §2, §3, §4, §5, §6
Known compounds and proteins. Several metallopeptides (S2ERh, L3ERh, R5ERh, and 13DRh) were reported previously and […]

[4] = target: T4, Abl SH3 domain (Homo sapiens, UniProt P00519); experiment: ITC binding to Abl SH3 domain; details: for -TΔS / ΔG / ΔH / Kd: 25 °C
T4 construct: The abl SH3 domain was amplified by PCR using Phusion DNA polymerase; GST (N, cleaved yes); made in house; host or cells: E. coli BL21 (DE3)
T4 sequence (P00519 60-121): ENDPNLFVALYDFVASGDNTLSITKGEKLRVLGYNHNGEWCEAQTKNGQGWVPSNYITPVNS
Description: as §1, §2
(§8) HPLC separation. Reverse-phase HPLC was performed on a Shimadzu CBM-20A instrument with Phenomenex Jupiter 4μ Proteo 90A (250 × 15 mm preparative) and Phenomenex Jupiter 4μ Proteo 90A (250 × 4.6 mm analytical) columns. The columns were eluted with a gradient of acetonitrile in water (10-90%) (flow rates of 8 mL/min and 1 mL/min for preparative and analytical columns, respectively). Trifluoroacetic acid (0.1%) was added to all eluents.
(§9) FPLC separation. Analytical FPLC was performed on an ÄKTA instrument with Superdex Peptide PE 7.5/300 column. The column was equilibrated with buffer (150 mM NaCl, 50 mM Tris, pH 7.0) at flow rate of 0.2 mL/min.
as §4, §5, §6
(§10) Known compounds and proteins. Several metallopeptides (S2ERh, L3ERh, R5ERh, and 13DRh) were reported previously and were prepared by known protocols;4 alkyne-diazo 3,5 3-azido-7-hydroxycoumarin6 were synthesized following reported procedures; fyn, yes, lck, and src SH3 protein domains were prepared following published procedures.5 Abl, hck, and lyn SH3 domain plasmids were adapted from the previously reported genes;7 the gene templates were obtained from Addgene, ID

[5] = target: Abl; set-up: method as in PMID 8718852; details: read-out: affinity for Abl; cited from earlier work
[6] = target: T5, Yes SH3 domain (Homo sapiens, UniProt P07947); experiment: ITC binding to Yes SH3 domain
T5 construct: fyn, yes, lck, and src SH3 protein domains were prepared following published procedures; made in house
T5 sequence (P07947 91-152 limits assumed): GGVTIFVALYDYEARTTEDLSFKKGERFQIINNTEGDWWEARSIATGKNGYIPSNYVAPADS
Description: as §1, §2, §8, §9, §4, §5, §6, §10

[7] = target: T6, Lck SH3 domain (Homo sapiens, UniProt P06239); experiment: ITC binding to Lck SH3 domain; details: 25 °C
T6 construct: fyn, yes, lck, and src SH3 protein domains were prepared following published procedures; made in house
T6 sequence (P06239 61-121 limits assumed): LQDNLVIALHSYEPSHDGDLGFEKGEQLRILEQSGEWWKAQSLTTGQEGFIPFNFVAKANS
Description: as §7, §4, §5
Known compounds and proteins. […]

[8] = Yes SH3, ITC, 25 °C, read-out: SH3 Kd

CC(=O)[O-].CC(=O)[O-].CC(=O)[O-].CC(=O)[O-].[Rh+2].[Rh+2] [Rh2(OAc)4, reference compound]
-TΔS [1]: -1.0 kcal/mol
Kd [1]: 89000 nM
ΔG [1]: -5.5 kcal/mol
ΔH [1]: -4.5 kcal/mol
Lyn kinase activation [2]: no activation; also recorded: had no effect on kinase activity
-TΔS [3]: 1.0 kcal/mol
Kd [3]: 150000 nM
ΔG [3]: -5.2 kcal/mol
ΔH [3]: -6.3 kcal/mol

APTE^RhSPPPPP [p40-Y4E^Rh]
Stoichiometry [4]: 1.2
-TΔS [4]: 5.3 kcal/mol
ΔG [4]: -7.0 kcal/mol
ΔH [4]: -12.3 kcal/mol

APTYSPPPPP [p40]
Kd [5]: 400 nM

E^RhPTYSPPPPP (Ac-E(Rh2(OAc)3)PTYSPPPPP-NH2; also: metal complex: Glu1 carboxylate bound to dirhodium(II) triacetate) [p40-A1E^Rh]
Kd [4]: 22 nM

E^RhPTYSPPPPP [p40-A1E^Rh]
Stoichiometry [4]: 1.0
-TΔS [4]: 8.9 kcal/mol
ΔG [4]: -10.5 kcal/mol
ΔH [4]: -19.4 kcal/mol

L3E^Rh: rhodium(II) metallopeptide based on Src-family SH3-binding sequence (VSL12), rhodium at residue 3 (VSEARRPLPPLPN; N-terminal acetyl, C-terminal amide)
Kd [6, 8]: 3740 nM
Kd [1]: 52 nM
Kd ([1]; listed as L3ERh): 22 nM
Kd [3]: 30 nM

N13D^Rh: negative control metallopeptide with the rhodium center too far for histidine interactions (VSLARRPLPPLPD; N-terminal acetyl, C-terminal amide)
Kd [4]: 8850 nM
Kd [7]: 239 nM
Kd ([6]; Yes SH3, ITC, 25 °C, listed as N13DRh, read-out: SH3 Kd): 238 nM
Kd [6, 8]: 301 nM
Kd ([6]; Yes SH3, unit inferred, read-out: Affinity of designed rhodium(II) metallopeptides (Fig. 1d)): 299 nM
Kd [1]: 544 nM
Kd [3]: 1200 nM

P12D^Rh: metallopeptide with the rhodium core moved to the 12th residue (VSLARRPLPPLDN; N-terminal acetyl, C-terminal amide)
Kd [7]: 79 nM
Kd [1]: 2320 nM

R5E^Rh: rhodium(II) metallopeptide based on Src-family SH3-binding sequence (VSL12), rhodium at residue 5; catalyst for Yes SH3 modification (VSLAERPLPPLPN; N-terminal acetyl, C-terminal amide)
Kd [6, 8]: 1740 nM
Kd [3]: 81 nM

R6E^Rh: rhodium(II) metallopeptide based on Src-family SH3-binding sequence (VSL12), rhodium at residue 6 (VSLAREPLPPLPN; N-terminal acetyl, C-terminal amide)
Kd [7]: 3790 nM
Kd [1]: 51 nM
Kd [3]: 152 nM
